Legend:
[1] = Enzyme stability at 25° C. or 40° C., first order inactivation; assay type: physicochemical; conditions: 1 mg enzyme/mL, pH 8.0
Procedure: Native CT and CT conjugates (1 mg enzyme/mL) were dissolved in 0.1 M sodium phosphate buffer (pH 8.0) and incubated in a water bath at either 25° C. or 40° C. At various time points, aliquots were removed and diluted to 0.1 mg enzyme/mL using 0.1 M phosphate buffer (pH 8.0). Residual activity was calculated as the percentage of activity remaining relative to the activity at time zero. Substrate (Suc-AAPF-pNA) concentration was kept constant at 288 μM for each sample and time points.

Suc-AAPF-pNA = target: T1, Suc-AAPF-pNA (Bos taurus, UniProt P00766); test: Enzyme activity: hydrolysis of Suc-AAPF-pNA at pH 5-10 (native CT, chymotrypsin-pQA conjugates); assay type: biochemical; conditions: 0.1 M phosphate buffer
T1 construct: purchased Sigma Aldrich; host or cells: bovine pancreas
Procedure: N-Succinyl-Ala-Ala-Pro-Phe p-nitroanilide (0 to 50 μL of 9.60 mM in DMSO) was added to sodium phosphate buffer (990 to 940 μL of 100 mM, pH 5-10). Native CT or conjugates solution (10 μL of 4.0 μM) was added to the substrate solution. The initial rate of hydrolysis of the peptide substrate was monitored by recording the increase in absorption at 412 nm using a UV-VIS spectrometer. The Michaelis-Menten parameters (kcat, KM and kcat/KM) were determined by non-linear curve fitting (using the well known Michaelis-Menten kinetics equation, V=Vmax[S]/KM+[S], […] where [E] is enzyme concentration, [S] is substrate concentration, and V is initial rate of the reaction) of plots of initial rate versus substrate concentration using the Enzfitter software.
Enzyme activity (kcat), specificity (KM), and productivity (kcat/KM) values were determined for each of the conjugates and native chymotrypsin at 25° C. in 0.1 M phosphate buffer (pH 5-10). Values were determined by monitoring the enzyme catalyzed hydrolysis of Suc-AAPF-pNA. Enzyme concentration for each of the reactions was 39 nM, with substrate concentrations ranging from 0-700 μM. The reaction was monitored for the first 30 seconds after mixing enzyme and substrate.

[2] = Stability at 50 or 60° C. (chymotrypsin-pQA); assay type: physicochemical; conditions: 0.1 M sodium phosphate buffer pH 8.0
Procedure: […] Aliquots (50 μL) were removed and kept at 0° C. before measuring residual activity. The residual activity was calculated as a ratio of initial rates of hydrolysis reaction at given incubation time over the initial activity for each specific sample.

NS-AAPF-pNA = target: T2, NS-AAPF-pNA (Bos taurus, UniProt P00766); test: CT and CT conjugate biocatalytic activity, 2.5 to 37.5° C.; assay type: biochemical
T2 construct: purchased Sigma Aldrich; host or cells: bovine pancreas
Procedure: N-succinyl-L-Ala-L-Ala-L-Pro-L-Phe-p-nitroanilide was used as a substrate for enzyme bioactivity assays. In a cuvette, 0.1 M sodium phosphate buffer (2820-2970 μL, pH 8.0), substrate (0-150 μL, 6 mg/mL in DMSO (0-500 μM)), and enzyme (30 μL, 0.1 mg enzyme/mL 0.1 M pH 8.0 sodium phosphate buffer (0.04 μM)) were mixed. The rate of the hydrolysis was determined by recording the increase in absorbance at 412 nm for the first 30 seconds after mixing. KM and kcat values were calculated using EnzFitter software when plotting substrate concentration versus initial hydrolysis velocity.
CT conjugate kinetics were examined at a variety of temperatures (2.5° C., 7° C., 16.5° C., 24.5° C., 33° C., and 37.5° C.) to determine the effect of polymer UCST and LCST phase transitions and molecular weight on enzyme kinetics (see FIGS. 11(a)-(c) and Table 16 below).

[3] = In vitro gastric acid stability, 167 mM HCl, 37° C.; assay type: physicochemical; conditions: 167 mM HCl (pH 1), 3 hours
Procedure: Native CT and CT-conjugates were incubated at 4 μM in 167 mM HCl at 37° C. in 50 μL aliquots. Aliquots were removed at specified time points and residual activity was measured at 25° C. in 0.1 M sodium phosphate buffer (pH 8.0) with Suc-AAPF-pNA as substrate (288 μM). Each time point was measured in duplicate and residual activity was calculated as the ratio of activity remaining from time zero.

pepsin = target: T3, pepsin (Sus scrofa, UniProt P00791); test: Stability to pepsin degradation; assay type: in vitro ADME, porcine; conditions: 167 mM HCl, 37° C.
T3 construct: purchased Sigma Aldrich; host or cells: porcine stomach mucosa
T3 sequence (P00791 60-385): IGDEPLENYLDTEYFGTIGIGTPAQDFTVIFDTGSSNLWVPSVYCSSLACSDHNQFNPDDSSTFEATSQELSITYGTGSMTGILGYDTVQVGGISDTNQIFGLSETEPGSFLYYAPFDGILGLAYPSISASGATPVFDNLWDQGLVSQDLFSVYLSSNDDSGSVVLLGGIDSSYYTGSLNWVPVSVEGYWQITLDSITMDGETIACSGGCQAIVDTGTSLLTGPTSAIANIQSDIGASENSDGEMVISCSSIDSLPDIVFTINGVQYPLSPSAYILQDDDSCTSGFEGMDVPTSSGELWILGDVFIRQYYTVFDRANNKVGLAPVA
Procedure: Native CT and CT-conjugates (4 μM) were incubated in 167 mM HCl with 16 nM pepsin at 37° C. in 50 μL aliquots. Samples were retrieved at specified time points and residual activity was measured in 0.1 M sodium phosphate buffer (pH 8.0) at 25° C. with Suc-AAPF-pNA as substrate (288 μM). Each time point was measured in duplicate and residual activity was calculated as the ratio of activity remaining from time zero. As a control, pepsin (16 nM) bioactivity towards Suc-AAPF-pNA was measured at pH 8.0 and no product formation was observed.

Which results are given for “α-Chymotrypsin (CT) from bovine pancreas (type II) [Native CT]”?
kinact ([1]; 25° C.): 0.13 ± 1.2 × 10^−2 days−1; t1/2 ([1]; 25° C.): 5.43 ± 0.51 days; kinact ([1]; 40° C.): 6.61 ± 0.47 day⁻¹; t1/2 ([1]; 40° C.): 0.10 ± 7.5 × 10^−3 days; Km (Suc-AAPF-pNA; pH 5.0, 25° C.): 184 µM; kcat (Suc-AAPF-pNA; pH 5.0, 25° C.): 2.85 s⁻¹; Km (Suc-AAPF-pNA; pH 6.0, 25° C.): 171 µM; kcat (Suc-AAPF-pNA; pH 6.0, 25° C.): 14.80 s⁻¹; Km (Suc-AAPF-pNA; pH 7.0, 25° C.): 94.3 µM; kcat (Suc-AAPF-pNA; pH 7.0, 25° C.): 26.81 s⁻¹; Km (Suc-AAPF-pNA; pH 8.0, 25° C.): 82.6 µM; kcat (Suc-AAPF-pNA; pH 8.0, 25° C.): 32.00 s⁻¹; Km (Suc-AAPF-pNA; pH 9.0, 25° C.): 123 µM; kcat (Suc-AAPF-pNA; pH 9.0, 25° C.): 33.30 s⁻¹; Km (Suc-AAPF-pNA; pH 10.0, 25° C.): 336 µM; kcat (Suc-AAPF-pNA; pH 10.0, 25° C.): 36.62 s⁻¹; time after which all activity was lost ([2]; 50° C.): 2 h; time in which all activity was lost ([2]; 60° C.): 30 min; Km (NS-AAPF-pNA; 2.5° C., 0.1 M sodium phosphate pH 8.0): 30 ± 5.1 µM; kcat (NS-AAPF-pNA; 2.5° C., pH 8.0): 8.9 ± 0.4 s⁻¹; kcat (NS-AAPF-pNA; 2.5° C., pH 8.0, listed as native chymotrypsin): 8.9 ± 0.4 s⁻¹; Km (NS-AAPF-pNA; 7° C., pH 8.0): 29 ± 6.9 µM; kcat (NS-AAPF-pNA; 7° C., pH 8.0): 9.7 ± 0.5 s⁻¹; kcat (NS-AAPF-pNA; 7° C., pH 8.0, listed as native chymotrypsin): 9.7 ± 0.5 s⁻¹; Km (NS-AAPF-pNA; 16.5° C., pH 8.0): 37 ± 8.6 µM; kcat (NS-AAPF-pNA; 16.5° C., pH 8.0): 16 ± 0.9 s⁻¹; kcat (NS-AAPF-pNA; 16.5° C., pH 8.0, listed as native chymotrypsin): 16 ± 0.9 s⁻¹; Km (NS-AAPF-pNA; 24.5° C., pH 8.0): 51 ± 8.7 µM; kcat (NS-AAPF-pNA; 24.5° C., pH 8.0): 25 ± 1.3 s⁻¹; kcat (NS-AAPF-pNA; 24.5° C., pH 8.0, listed as native chymotrypsin): 25 ± 1.3 s⁻¹; Km (NS-AAPF-pNA; 33° C., pH 8.0): 57 ± 5 µM; kcat (NS-AAPF-pNA; 33° C., pH 8.0): 36 ± 1.3 s⁻¹; kcat (NS-AAPF-pNA; 33° C., pH 8.0, listed as native chymotrypsin): 36 ± 1.3 s⁻¹; Km (NS-AAPF-pNA; 37.5° C., pH 8.0): 59 ± 6.9 µM; kcat (NS-AAPF-pNA; 37.5° C., pH 8.0): 47 ± 1.7 s⁻¹; kcat (NS-AAPF-pNA; 37.5° C., pH 8.0, listed as native chymotrypsin): 47 ± 1.7 s⁻¹; activity maintained [3]: complete activity loss; time after which all activity was lost (pepsin): 75 min
